The chains are these.
B1: CPEB3 Ribozyme (parent)
chain: GGGGGCCACAGCAGAAGCGUUCACGUCGCGGCCCCUGUCAGAUUCUGGUGAAUCUGCGAAUUCUGCUGU

The variants in this data set derive from B1. The data set can be described thus: self-cleavage, relative activity (ratio to wild type); higher = more cleavage; co-transcriptional.
On to G41C A42G, for which the self-cleavage was 0.754.
The result for U38G C45G reads 0.27; that for A40U G47A, 0.885; that for A40U G47U, 0.912.
The result for A40U U44A reads 0.609.
To A40C G65U belongs 0.354.
In the case of G41A A52C, the self-cleavage is 0.388.
The result for C39G G68U reads 0.988; that for A40U U61C, 0.258.
The result for A40U U61A reads 0.5; that for A40G G65U, 0.519; that for C39U G41C, 0.445.
In the case of G41A G65A, the self-cleavage was determined as 0.482.
The result for G41A G56A reads 0.77; that for C39U U61G, 0.577.
Take U38G A59U: the self-cleavage was 0.228.
To G41C A51G belongs 0.687; to G41A G58U, 0.921; to G41A G58A, 0.906.
To G41A G58C belongs 0.86.
The result for A40U A52C reads 0.561.
For A40U A52U, the self-cleavage came to 0.477.
To U38G G41U belongs 0.238; to U38G G41A, 0.245; to G41U C66U, 0.75.
To G41C G58U belongs 0.962; to G41C G58C, 0.85; to U38C C63A, 0.71.
U38C C63G: the self-cleavage was 0.693.
To C39G A40G belongs 0.812.
Consider G41U C45U, for which the self-cleavage amounted to 0.715.
Take G41U A42U: the self-cleavage was found to be 0.862.
With G41U A42G, the self-cleavage was 0.777.
Consider G41U A42C, for which the self-cleavage worked out at 0.389.
To A40C U55G belongs 0.951.
As for C39G G58C, the self-cleavage was 0.929.
To G41U A60C belongs 0.414; to U38G, 0.242.
To G41A U43G belongs 0.241.
In the case of C39U G50A, the self-cleavage was found to be 0.91.
The result for C39G G48C reads 0.945; that for G41A A60G, 0.464; that for A40U G58U, 0.931.
The result for A40U G58A reads 0.797.
The result for A40U G58C reads 0.881; that for G41A U44A, 0.302; that for G41A U44C, 0.413.
With C39A U55A, the self-cleavage is 0.825.
The result for C39U G68A reads 0.99; that for A40G G56C, 0.779.
To C39U U69A belongs 0.94.
To C39U U69G belongs 1.05; to U38G A52U, 0.156; to G41C C66U, 0.75.
As to G41C C66A, the self-cleavage turned out to be 0.285.
To C39U U64A belongs 0.616; to U38C C66U, 0.947.
Consider A40C C54G, for which the self-cleavage came to 0.323.
To U38G A40U belongs 0.179; to U38G A40G, 0.257.
To U38G A40C belongs 0.17; to C39A C66G, 0.535; to A40U A59C, 0.285.
The result for G41A A59G reads 0.774; that for G41A A59U, 0.332; that for A40C U44A, 0.417.
As for A40C U44C, the self-cleavage came out at 0.368.
Regarding A40C U44G, the self-cleavage was 0.419.
The result for A40G G68U reads 0.987; that for G41A C66U, 0.756.
To G41A C66A belongs 0.388.
The result for G41C G50U reads 0.698; that for G41C G50C, 0.325; that for G41C G50A, 0.693.
Consider C39G U55G, for which the self-cleavage worked out at 0.863.
To C39G U55C belongs 0.693; to G41A U61C, 0.257.
The result for C39G C66A reads 0.531; that for U38G U53C, 0.24.
In the case of U38G U53G, the self-cleavage was 0.255.
The result for U38G U53A reads 0.287; that for A40U C54A, 0.435.
The result for U38C U55G reads 0.242; that for A40C U67C, 0.539; that for C39A U64A, 0.467.
Take C39A U64G: the self-cleavage worked out at 0.61.
Take A40G C57U: the self-cleavage came out at 0.311.
To A40G C57A belongs 0.34.
A40U G41U: the self-cleavage turned out to be 0.664.
To A40U G41C belongs 0.592.
The result for C39G G65U reads 0.442.
To C39G G65C belongs 0.297.
Turning to C39G C57G, the self-cleavage was determined as 0.361.
Take C39G C57A: the self-cleavage is 0.303.
On to C39G C57U, for which the self-cleavage stood at 0.327.
C39G U64A: the self-cleavage came to 0.636.
To C39U A59C belongs 0.445.
To C39U A59U belongs 0.527; to A40G U55G, 0.757.
The result for A40G U55A reads 0.858; that for A40G U55C, 1.
On to G41U A59U, for which the self-cleavage was determined as 0.453.
To G41U U53A belongs 0.616; to A40U C57A, 0.333; to A40U C57U, 0.302.
Turning to U38C U53G, the self-cleavage turned out to be 0.682.
Consider U38C U53C, for which the self-cleavage stood at 0.763.
The result for U38C U53A reads 0.883; that for G41U U69C, 0.697; that for C39A U46A, 0.925.
To C39A A59G belongs 0.911.
On to C39A A59U, for which the self-cleavage is 0.446.
In the case of C39A A42U, the self-cleavage turned out to be 0.551.
To A40U U53G belongs 0.378; to A40U U53A, 0.302; to A40U, 0.901.
Take A40G: the self-cleavage amounted to 0.97.
In the case of A40C, the self-cleavage was 0.702.
The result for A40G U67A reads 0.941; that for U38C U44G, 0.851.
The result for U38G U61A reads 0.267.
To U38G U61C belongs 0.289; to U38G U61G, 0.436.
Regarding C39G A59G, the self-cleavage turned out to be 0.947.
The result for A40C U69G reads 0.875.
The result for C39G G41A reads 0.486; that for A40G A51G, 0.979.
Turning to C39A C57A, the self-cleavage was 0.337.
For the variant A40G C54G, the self-cleavage was 0.656.
The result for A40G C54A reads 0.701.
For U38G G68C, the self-cleavage was 0.175.
The result for U38G G68U reads 0.273; that for G41U U55C, 0.34.
For G41U U55A, the self-cleavage was found to be 0.551.
The result for C39A G47C reads 0.945; that for G41C U64C, 0.394; that for C39U U55A, 0.752.
To C39U U55C belongs 0.752; to C39G U69A, 0.967.
In the case of C39G U69G, the self-cleavage was 1.
To A40G C66G belongs 0.67; to A40C G41U, 0.22; to A40C C63A, 0.321.
To C39U U46A belongs 0.934.
Turning to G41C A52G, the self-cleavage amounted to 0.609.
To G41C A52U belongs 0.415.
To A40G A52C belongs 0.87; to A40G A52G, 0.903.
The result for A40G A52U reads 0.851; that for U38C U69G, 1.05.
For the variant G41C G48A, the self-cleavage was found to be 0.949.
To G41A U46G belongs 0.904.
The result for C39U U43A reads 0.49; that for C39U U43G, 0.405.
The result for A40G G47C reads 1.
G41A G50C: the self-cleavage stood at 0.453.
In the case of G41A G50U, the self-cleavage stood at 0.686.
To G41U G47A belongs 1.02; to C39G C63G, 0.513.
To G41C A59U belongs 0.271; to G41A C54A, 0.904; to G41C G65C, 0.316.
To A40U U43G belongs 0.299.
Turning to G41A G48C, the self-cleavage turned out to be 0.876.
The result for G41A G48U reads 0.987; that for U38G G58U, 0.294; that for G41A, 0.906.

These data come from the RNAGym collection of RNA variant scans (doi:10.7554/elife.80360).
